Article PMC6237754, “A monovalent ion in the DNA binding interface of the eukaryotic junction-resolving enzyme GEN1”

Target: T1, CtGEN1 (Chaetomium thermophilum, UniProt G0RYN2 1-487)
T1 sequence: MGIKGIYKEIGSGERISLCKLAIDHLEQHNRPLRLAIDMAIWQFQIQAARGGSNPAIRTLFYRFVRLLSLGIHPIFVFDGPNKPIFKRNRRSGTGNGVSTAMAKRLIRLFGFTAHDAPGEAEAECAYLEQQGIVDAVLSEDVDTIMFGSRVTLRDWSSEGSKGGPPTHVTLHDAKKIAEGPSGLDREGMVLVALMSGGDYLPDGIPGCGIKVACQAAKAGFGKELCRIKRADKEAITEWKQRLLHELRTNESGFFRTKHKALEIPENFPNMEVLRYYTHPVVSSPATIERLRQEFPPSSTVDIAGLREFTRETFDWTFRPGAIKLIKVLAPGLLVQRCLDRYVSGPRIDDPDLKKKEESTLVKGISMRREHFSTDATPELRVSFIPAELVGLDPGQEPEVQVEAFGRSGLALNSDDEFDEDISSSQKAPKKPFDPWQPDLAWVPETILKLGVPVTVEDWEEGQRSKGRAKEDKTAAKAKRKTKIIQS
Test: EMSA; 100 mM KCl; EMSA: equal volumes of DNA in 10 mM Tris pH 7.5, 0.1% BSA, 100 mM KCl or NaCl and CtGEN1 in 10 mM Tris pH 7.5, 100 mM NDSB-195, 0.1% BSA, 1 mM EDTA; 20 min, 20
Conditions: protein: recombinant; tags: C-terminal His6; chain copies: 2; label: 5'-32P; four-way junction; strands b/h/r/x, 50 nt each

B1: four-way junction 3 (4H) (structured_DNA)
DNA 1: CCTCGAGGGATCCGTCCTAGCAAGGGGCTGCTACCGGAAGCTTACAGATG
DNA 2: CATCTGTAAGCTTCCGGTAGCAGCCTGAGCGGTGGTTGAATTCACAGATG
DNA 3: CATCTGTGAATTCAACCACCGCTCAACTCAACTGCAGTCTAGAACACATG
DNA 4: CATGTGTTCTAGACTGCAGTTGAGTCCTTGCTAGGACGGATCCCTCGAGG
binding signal: ~2 fold higher affinity than in Na+
